From patent US20240174744A1 (SCIRHOM, published 2024) come the findings set out here.

The assay deals with T1, human iRhom1, endogenously expressed on RH-30 cells (human, UniProt Q96CC6 1-855).
T1 construct: RH-30 cells are described as endogenously negative for iRhom2 but endogenously expressing iRhom1; also called NP_071895.3
T1 sequence: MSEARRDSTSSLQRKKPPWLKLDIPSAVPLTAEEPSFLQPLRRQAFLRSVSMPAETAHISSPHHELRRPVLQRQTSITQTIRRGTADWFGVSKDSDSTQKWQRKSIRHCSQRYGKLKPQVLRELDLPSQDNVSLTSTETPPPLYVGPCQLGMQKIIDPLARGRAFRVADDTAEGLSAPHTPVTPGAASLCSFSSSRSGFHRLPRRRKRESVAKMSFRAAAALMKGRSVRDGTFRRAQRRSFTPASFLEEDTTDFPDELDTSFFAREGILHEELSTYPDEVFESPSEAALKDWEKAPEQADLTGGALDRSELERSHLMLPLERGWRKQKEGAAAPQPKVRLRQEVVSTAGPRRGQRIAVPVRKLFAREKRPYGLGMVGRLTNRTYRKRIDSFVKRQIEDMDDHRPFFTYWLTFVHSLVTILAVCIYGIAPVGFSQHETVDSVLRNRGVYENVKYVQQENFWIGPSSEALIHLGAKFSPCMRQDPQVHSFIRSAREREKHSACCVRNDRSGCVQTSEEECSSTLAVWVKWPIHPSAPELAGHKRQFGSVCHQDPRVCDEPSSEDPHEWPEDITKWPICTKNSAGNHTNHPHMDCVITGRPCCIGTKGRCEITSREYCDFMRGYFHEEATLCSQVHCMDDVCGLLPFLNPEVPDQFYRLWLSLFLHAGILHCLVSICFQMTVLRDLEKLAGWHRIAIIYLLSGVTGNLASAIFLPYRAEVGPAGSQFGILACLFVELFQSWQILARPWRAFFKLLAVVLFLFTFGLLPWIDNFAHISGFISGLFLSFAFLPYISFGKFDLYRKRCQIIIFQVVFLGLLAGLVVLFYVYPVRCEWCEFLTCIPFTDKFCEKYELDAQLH
Description: FACS, RH-30 cells (endogenous iRhom1, no iRhom2). How it is done: In brief, human RPMI-8226 cells (Deutsche Sammlung von Mikroorganismen und Zellkulturen, Germany), THP-1 cells (American Type Culture Collection, USA) and RH-30 cells (Deutsche Sammlung von Mikroorganismen und Zellkulturen, Germany) were harvested with 10 mM EDTA in PBS, washed and resuspended in FACS buffer (PBS, 3% FBS, 0.05% sodium azide), and seeded in Nunc U-bottom 96-well plates (Thermo Fisher Scientific, USA) at approximately 2×10⁵ cells per well. In order to pellet cells and remove supernatants, the plates were centrifuged at 1,500 rpm and 4° C. for 3 minutes. For primary staining, cells were resuspended in 100 μl per well of either FACS buffer alone (controls), a 1:60 dilution of the hybridoma supernatant, the primary material leading to the antibodies 3, 16, 22 and 42 of the present disclosure in FACS buffer or 3 μg/ml of the antibodies 16, 22 and 42 of the present disclosure in FACS buffer and incubated on ice for 1 hour. Afterwards, plates were centrifuged at 1,500 rpm and 4° C. for 3 minutes and washed twice with 200 μl per well of FACS buffer. […] Finally, cells were resuspended in 150 μl per well of FACS buffer and analyzed using a BD Accuri™ C6 Plus flow cytometer (Becton Dickinson, Germany).
Background: Flow cytometry measures light scatter and fluorescence of single cells or particles in a stream.

B1: antibody 22 (antibody, V domains shown)
VH: QVTLKESGPGILQPSQTLSLTCSFSGFSLSTFGMGVGWIRQPSGKGLEWLAHIWWDDEKYYNSALKSRLTISKATSKNQVFLKIANVDTADTATYYCARISNYGSNYWYFNVWGTGTTVTVSS
VL: QVVLTQSPALMSASPGEKVTMTCSAGSSVSYMYWYQQKPGSSPRVLIYDTSNLASGVPARFTGSGSGTSYSLTISRMEAEDAATYYCQQWNSYPLTFGAGTKLELK
notes: Mouse IgG, kappa light chain; also called clone #22; m22
As for B1, the binding result was “no binding (tested: 3 µg/ml)”.

B2: antibody 42 (antibody, V domains shown)
VH: QVTLKESGPGILQPSQTLSLTCSLSGFSLSTFGRGVGWIRQPSGKGLEWLAHIWWDDEKYYNPALKSRLTISKDTSKNQVFLRIANVDTADTATYYCARIQNYGSNYWYFDVWGTGTTVTVSS
VL: LIVLTQSPAIMSASPGEKVTMTCGATSRISYMFWYQQKPGSSPRVLIYDTSNLASGVPVRFSGSGSGTSYSLTISRVEAEDVATYYCQQWNSYPLTFGAGTKLELK
notes: Mouse IgG, kappa light chain; also called clone #42; m42
Consider B2, for which the binding result was “no binding (tested: 3 µg/ml)”.
